B1: mouse CALHM3-GFP (natural protein, UniProt J3QMI4 1-347, looked up)
chain: MDRFRMLFQHLQSSSESVMNGICLLLAAVTVKIYSSLDFNCPCLERYNALYGLGLLLTPPLALFLCGLLVNRQSVLMVEEWRRPAGHRRKDLGIIRYMCSSVLQRALAAPLVWILLALLDGKCFVCAFSNSVDPEKFLDFANMTPRQVQLFLAKVPCKEDELVKNSPARKAVSRYLRCLSQAIGWSITLLVIVVAFLARCLRPCFDQTVFLQRRYWSNYMDLEQKLFDETCCEHARDFAHRCVLHFFANMQSELRALGLRRDPAGGIPESQESSEPPELREDRDSGNGKAHLRAISSREQVDQLLSTWYSSKPPLDLAASPRRWGPGLNHRAPIAAPGTKLCHQLNV
B2: CALHM3-mCherry (natural protein, mouse, UniProt J3QMI4 1-347, looked up)
chain: B1 chain
B3: mouse CALHM1-FLAG (natural protein, UniProt D3Z291 1-348, looked up)
chain: MDKFRMIFQFLQSNQESFMNGICGIMALASAQMYSAFDFNCPCLPGYNVVYSLGILLTPPLVLFLLGLVMNNNISMLAEEWKRPAGRRAKDPAVLRYMFCSMAQRALIAPVVWVAVTLLDGKCFLCAFCTAVPVATLGNGSLVPGLPAPELARLLARVPCPEIYDGNWLLAREVAVRYLRCISQALGWSFVLLTTLLAFVVRSVRPCFTQVAFLKSKYWSHYIDIERKLFDETCTEHAKAFAKVCIQQFFEAMNHDLELGHTHGVLATATATATATEAVQSPSDRTEEEREKLRGITDQGTMNRLLTSWHKCKPPLRLGQEAPLMSNGWAGGEPRPPRKEVATYFSKV

The target of data set [1] is B3. Put plainly: native gel or EMSA.
Data set [2] concerns the molecule itself. Put plainly: single-molecule photobleaching.
Data set [3] concerns the molecule itself. As to the kind of experiment: native gel or EMSA.

B1: in data set [1], the “stoichiometry N” value was ≥ 1 CALHM3 subunit per channel.

On to B2, for which the “stoichiometry N” value in data set [2] was determined as 6.

As for B3, the “stoichiometry N” value in data set [3] is approximately 6.

Values taken from PMC5934295 (Neuron, 2018).
